Measured values as given in patent US11306156.

Tests used:
[1] = molecular target: tissue factor (TF) antigen (UniProt P13726); assay: SPR, Fab captured on anti-penta His, TF injected
[2] = molecular target: tissue factor (TF) antigen (UniProt P13726); assay: SPR, Fab captured on anti-penta His surface, TF as analyte, 1:1 fit
[3] = molecular target: tissue factor (TF) antigen (UniProt P13726); assay: SPR, Fab captured on anti-penta-His, TF as analyte, 1:1 fit
[4] = molecular target: tissue factor (TF) (human) (UniProt P13726); assay: SPR (ProteOn), Fab captured on anti-penta His, TF analyte, 1:1 fit
tissue factor (TF) (human), sequence (P13726 33-251 limits assumed): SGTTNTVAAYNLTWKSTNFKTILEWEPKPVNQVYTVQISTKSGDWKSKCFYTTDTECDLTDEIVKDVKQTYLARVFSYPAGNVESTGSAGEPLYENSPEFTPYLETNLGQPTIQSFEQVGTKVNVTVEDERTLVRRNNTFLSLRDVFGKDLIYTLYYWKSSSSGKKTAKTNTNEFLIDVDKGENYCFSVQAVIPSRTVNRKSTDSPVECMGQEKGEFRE

tissue factor (TF) antigen, sequence (P13726 33-251 limits assumed): as above

Substance	Change in KD with respect to wild type (-(log(KD design) - log(KD wt))) [2]	Kd [2]	Kd [4]	change in KD vs wild type, -(log(KD design)-log(KD wt)) [4]	further results
D3H44 Fab heterodimer H L124E_H172T / L V133G_N137K_S174R_S176R (H1L1 Fab of LCCA Set # 9121)	–	–	–	–	Change in KD with respect to wild type (-(log(KD design) - log(KD wt))) [1]: 0.08; Kd [1]: 0.13 nM
D3H44 Fab heterodimer H L124E_L143D_K145M / L Q124K_V133G_Q160K_S176R (H1L1 Fab of LCCA Set # 9170)	–	–	–	–	Change in KD with respect to wild type (-(log(KD design) - log(KD wt))) [1]: -0.24; Kd [1]: 0.27 nM
D3H44 Fab heterodimer H L124E_L143D_K145M / L Q124K_V133G_S176R_T178K (H1L1 Fab of LCCA Set # 9178, 9179)	–	–	–	–	Change in KD with respect to wild type (-(log(KD design) - log(KD wt))) [1]: -0.15; Kd [1]: 0.22 nM
D3H44 Fab heterodimer H L124E_L143D_K145T / L Q124K_V133G_S176R_T178K (H1L1 Fab of LCCA Set # 9220, 9216)	–	–	–	–	Change in KD with respect to wild type (-(log(KD design) - log(KD wt))) [1]: -0.08; Kd [1]: 0.19 nM
D3H44 Fab heterodimer H L124E_L143D_K145T / L Q124K_V133G_S176R_T178R (H1L1 Fab of LCCA Set # 9229, 9225, 9228)	–	–	–	–	Change in KD with respect to wild type (-(log(KD design) - log(KD wt))) [1]: -0.02; Kd [1]: 0.16 nM
D3H44 Fab heterodimer H L124E_L143E_K145M / L Q124K_V133G_Q160K_S176R (H1L1 Fab of LCCA Set # 9247)	–	–	–	–	Change in KD with respect to wild type (-(log(KD design) - log(KD wt))) [1]: -0.26; Kd [1]: 0.28 nM
D3H44 Fab heterodimer, H1L1 of LCCA Set # 9074 (H1 H172R_Q179K; L1 Q124E_Q160E_T180E)	-0.01	0.16 nM	–	–	–
D3H44 Fab heterodimer, H1L1 of LCCA Set # 9099 (H1 L124A_Q179K; L1 Q124E_V133W_S176T_T178L_T180E)	-0.09	0.19 nM	–	–	–
D3H44 Fab heterodimer, H1L1 of LCCA Set # 9818 (H1 Q39E_L143E_K145T_H172R; L1 Q38R_Q124R_Q160K_T178R)	-0.07	0.18 nM	–	–	–
D3H44 Fab heterodimer, H1L1 of LCCA Set # 9820 (H1 Q39E_L143E_K145T_Q179E; L1 Q38R_Q124R_Q160K_T178R)	-0.1	0.2 nM	–	–	–
D3H44 Fab heterodimer, H1L1 of LCCA Set # 9822 (H1 Q39R_D146G_Q179K; L1 Q38E_Q124E_Q160E_T180E)	0.17	0.11 nM	–	–	–
D3H44 Fab heterodimer, H1L1 of LCCA Sets # 9094, 9095 and 9096 (H1 L124A_L143F_Q179K; L1 Q124E_V133W_S176T_T178L_T180E)	-0.04	0.17 nM	–	–	–
D3H44 Fab heterodimer, H1L1 of LCCA Sets # 9558 and 9559 (H1 L124W_L143E_K145T_Q179E; L1 Q124K_V133A_S176T_T178R)	-0.24	0.27 nM	–	–	–
D3H44 Fab heterodimer, H L124E_L143D_K145M / L Q124K_V133G_S176R_T178K	–	–	–	–	Change in KD with respect to wild type (-(log(KD design) - log(KD wt))) [3]: -0.15; Kd [3]: 0.22 nM
D3H44 Fab heterodimer, H L124E_L143D_K145T / L Q124K_V133G_S176R_T178K	–	–	–	–	Change in KD with respect to wild type (-(log(KD design) - log(KD wt))) [3]: -0.08; Kd [3]: 0.19 nM
D3H44 Fab heterodimer, H L124E_L143D_K145T / L Q124K_V133G_S176R_T178R	–	–	–	–	Change in KD with respect to wild type (-(log(KD design) - log(KD wt))) [3]: -0.02; Kd [3]: 0.15 nM
D3H44 Fab heterodimer, H L124E_L143E_K145M / L Q124K_V133G_S176R_T178K	–	–	–	–	Change in KD with respect to wild type (-(log(KD design) - log(KD wt))) [3]: -0.19; Kd [3]: 0.24 nM
D3H44 Fab heterodimer, H L124E_L143E_K145M / L Q124K_V133G_S176R_T178R	–	–	–	–	Change in KD with respect to wild type (-(log(KD design) - log(KD wt))) [3]: -0.29; Kd [3]: 0.31 nM
D3H44 Fab heterodimer, H L124R_S186R / L V133G_S176D_T178E_T180E	–	–	–	–	Change in KD with respect to wild type (-(log(KD design) - log(KD wt))) [3]: -0.15; Kd [3]: 0.22 nM
H1L1 Fab heterodimer of LCCA set 9351 (D3H44 Fab; H: L124R_D146N_Q179K; L: Q124E_V133G_S176D_T178E_T180E)	–	–	0.2 nM	-0.1	–
H1L1 Fab heterodimer of LCCA set 9447 (D3H44 Fab; H: L124R_Q179K; L: V133G_S176D_T180E)	–	–	0.28 nM	-0.26	–
H1L1 Fab heterodimer of LCCA set 9566 (D3H44 Fab; H: L124W_L143F; L: V133A)	–	–	0.25 nM	-0.21	–
H1L1 Fab heterodimer of LCCA set 9573 (D3H44 Fab; H: L143A_Q179K; L: Q124E_V133Y_T180E)	–	–	0.27 nM	-0.23	–
H1L1 Fab heterodimer of LCCA set 9725 (D3H44 Fab; H: L143E_K145T_S188L; L: Q124R_Q160K_T178R)	–	–	0.24 nM	-0.19	–
H1L1 Fab heterodimer of LCCA set 9737 (D3H44 Fab; H: L143R; L: Q124E_V133E)	–	–	0.2 nM	-0.09	–
H1L1 Fab heterodimer of LCCA set 9917 (D3H44 Fab; H: S188L_V190Y; L: V133S)	–	–	0.1 nM	0.2	–

Now from value to substance, other results behind:

Change in KD with respect to wild type (-(log(KD design) - log(KD wt))) [2]	Kd [2]	Kd [4]	change in KD vs wild type, -(log(KD design)-log(KD wt)) [4]	Substance	further results
-0.28	0.3 nM	–	–	D3H44 Fab heterodimer, H1L1 of LCCA Set # 9754 (H1 L45P_L143E_K145T_Q179E; L1 P44F_Q124R_Q160K_T178R)	–
-0.31	0.32 nM	–	–	D3H44 Fab heterodimer, H1L1 of LCCA Set # 9760 (H1 Q179K; L1 Q124E_Q160E_T180E)	–
-0.05	0.18 nM	–	–	D3H44 Fab heterodimer, H1L1 of LCCA Set # 9817 (H1 Q39E_L143E_K145T; L1 Q38R_Q124R_Q160K_T178R)	–
0.03	0.15 nM	–	–	D3H44 Fab heterodimer, H1L1 of LCCA Set # 9819 (H1 Q39E_L143E_K145T_H172R_Q179E; L1 Q38R_Q124R_Q160K_T178R)	–
-0.18	0.24 nM	–	–	D3H44 Fab heterodimer, H1L1 of LCCA Set # 9823 (H1 Q39R_H172R_Q179K; L1 Q38E_Q124E_Q160E_T180E)	–
0.01	0.15 nM	–	–	D3H44 Fab heterodimer, H1L1 of LCCA Sets # 9076, 9077 and 9078 (H1 H172T_Q179K; L1 Q124E_N137K_Q160E_S174R_T180E)	–
-0.02	0.16 nM	–	–	D3H44 Fab heterodimer, H1L1 of LCCA Sets # 9090, 9091 and 9092 (H1 L124A_L143F_Q179K; L1 Q124E_V133W_S176T_T178E_T180E)	–
-0.13	0.21 nM	–	–	D3H44 Fab heterodimer, H1L1 of LCCA Sets # 9560 and 9561 (H1 L124W_L143E_K145T_Q179E; L1 Q124R_V133A_S176T_T178R)	–
-0.27	0.29 nM	–	–	D3H44 Fab heterodimer, H1L1 of LCCA Sets # 9752 and 10552 (H1 L45P_L143E_K145T_H172R; L1 P44F_Q124R_Q160K_T178R)	–
–	–	0.2 nM	-0.11	H1L1 Fab heterodimer of LCCA set 9213 (D3H44 Fab; H: L124E_L143D_K145T; L: Q124K_V133G_S176R)	–
–	–	0.24 nM	-0.19	H1L1 Fab heterodimer of LCCA set 9259 (D3H44 Fab; H: L124E_L143E_K145M; L: Q124K_V133G_S176R_T178K)	–
–	–	0.15 nM	0.01	H1L1 Fab heterodimer of LCCA set 9364 (D3H44 Fab; H: L124R_D146N_Q179K; L: V133G_S176D_T180E)	–
–	–	0.24 nM	-0.19	H1L1 Fab heterodimer of LCCA set 9491 (D3H44 Fab; H: L124R_S186K; L: V133G_S176D_T180E)	–
–	–	0.21 nM	-0.12	H1L1 Fab heterodimer of LCCA set 9704 (D3H44 Fab; H: L143E_K145T_S188L; L: Q124R)	–
–	–	0.28 nM	-0.25	H1L1 Fab heterodimer of LCCA set 9732 (D3H44 Fab; H: L143K; L: Q124E_V133D_S176L)	–
–	–	0.26 nM	-0.22	H1L1 Fab heterodimer of LCCA set 9734 (D3H44 Fab; H: L143K_D146G; L: Q124E_V133D)	–
–	–	0.28 nM	-0.25	H1L1 Fab heterodimer of LCCA set 9743 (D3H44 Fab; H: L143R; L: Q124E_V133E_S176L)	–
–	–	0.11 nM	0.14	H1L1 Fab heterodimer of LCCA set 9906 (D3H44 Fab; H: S188G; L: S176L)	–
–	–	0.09 nM	0.27	H1L1 Fab heterodimer of LCCA set 9911 (D3H44 Fab; H: S188L; L: WT)	–
–	–	0.15 nM	0.01	H1L1 Fab heterodimer of LCCA set 9914 (D3H44 Fab; H: S188L_V190F; L: WT)	–
–	–	0.11 nM	0.15	H1L1 Fab heterodimer of LCCA set 9987 (D3H44 Fab; H: L143E_K145T; L: Q124R_T178R)	–
